T1: FcγRIIa R (FcγRIIa, allotype R: Arg at position 131) extracellular domain with C-terminal His tag (human, UniProt P12318 34-217)
T1 construct: extracellular domain; also called FcgRIIa R; 2aR; not shown: His tag at the C terminus
T1 sequence (looked up): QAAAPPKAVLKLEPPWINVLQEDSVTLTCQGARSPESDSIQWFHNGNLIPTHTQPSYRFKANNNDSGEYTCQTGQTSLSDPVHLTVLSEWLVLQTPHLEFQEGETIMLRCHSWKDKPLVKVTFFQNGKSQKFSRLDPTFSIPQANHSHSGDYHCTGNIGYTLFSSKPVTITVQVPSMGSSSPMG

T2: FcγRIIb extracellular domain with C-terminal His tag (human, UniProt P31994 43-217)
T2 construct: extracellular domain; also called FcgRIIb; 2b; not shown: His tag at the C terminus
T2 sequence (looked up): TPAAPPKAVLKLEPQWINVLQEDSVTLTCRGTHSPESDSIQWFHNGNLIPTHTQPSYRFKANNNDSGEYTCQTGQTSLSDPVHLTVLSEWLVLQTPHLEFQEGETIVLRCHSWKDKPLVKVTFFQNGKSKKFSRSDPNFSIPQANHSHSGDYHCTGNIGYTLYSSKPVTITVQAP

T3: FcγRIIb (human, UniProt P31994 43-217)
T3 construct: extracellular domain; also called FcgRIIb; 2b
T3 sequence (looked up): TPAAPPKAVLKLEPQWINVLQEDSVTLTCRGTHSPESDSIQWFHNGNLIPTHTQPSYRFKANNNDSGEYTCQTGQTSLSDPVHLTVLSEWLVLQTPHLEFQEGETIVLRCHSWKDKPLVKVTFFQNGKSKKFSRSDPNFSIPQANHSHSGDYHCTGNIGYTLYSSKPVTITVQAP


What was measured:
[1] = target: T1, FcγRIIa R (FcγRIIa, allotype R: Arg at …); test: SPR Biacore, antibody captured, FcgR analyte; vs HeCon Ab GpH7-A5/GpH7-B3/GpL16-k0 = 100
Description: (§1) The heterodimerized antibodies He Abs in which one of the H chains was introduced with an alteration were assayed for their binding activities to each activating FcγR and inhibitory FcγR according to the method described in Example 4. […] The activating FcγRs in FIGS. 26, 27, 28, and 29 are FcγRIa, FcγRIIa (R), FcγRIIa (H), and FcγRIIIa, respectively.
(§2) Analysis of interaction between objective antibody and the FcγR was carried out using Biacore T100 (GE Healthcare). HBS-EP+ (GE Healthcare) was used as the running buffer, and the measurement temperature was set to 25° C. Chips produced by immobilizing the antigen peptide by the amine coupling method to a Series S Sencor Chip CM5 (GE Healthcare), or alternatively, chips produced by allowing preliminarily biotinylated antigen peptides to interact with and immobilize onto a Series S Sensor Chip SA (certified) (GE Healthcare) were used. Antibodies of interest were captured onto an antigen peptide-immobilized chip, and allowed to interact to each FcγR diluted with running buffer. To regenerate and repeatedly use the chip, the antibodies captured on the chip were washed off by reacting 10 mM glycine-HCl, pH 1.5.

[2] = target: T2, FcγRIIb extracellular domain with …; test: as above
Description: as §1, §2

FcγRIIb = target: T3, FcγRIIb; test: SPR (Biacore), relative to GpH7-A5/GpH7-B3/GpL16-k0 = 100
Description: as §1, §2

FcγRIa = target: T4, FcγRIa (human, UniProt P12314 16-292); test: as above
T4 construct: extracellular domain; also called FcgRI; FcgRIa
T4 sequence (P12314 16-292): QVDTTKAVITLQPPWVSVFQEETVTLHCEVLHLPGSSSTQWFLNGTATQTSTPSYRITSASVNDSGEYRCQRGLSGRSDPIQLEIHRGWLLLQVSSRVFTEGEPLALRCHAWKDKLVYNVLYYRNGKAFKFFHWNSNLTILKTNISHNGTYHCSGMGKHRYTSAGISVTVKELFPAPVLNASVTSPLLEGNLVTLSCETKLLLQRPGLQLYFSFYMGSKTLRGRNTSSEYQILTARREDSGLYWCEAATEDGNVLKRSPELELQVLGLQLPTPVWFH
Description: as §1, §2

Row | Binder | He/Con_2aR [1] [control = 100] | He/Con_2b [2] [control = 100] | He/Con_2b (IIb binding) (FcγRIIb) | He/Con_1a (Ia binding) (FcγRIa)
1 | GpH7-A5/GpH7-B3 variant E333_05P/GpL16-k0 (antibody, human IgG1, kappa, He Ab: alteration in the GpH7-B3 H chain only; also called He Ab) heavy 1: not shown heavy 2: not shown light: DIVMTQSPLSLPVTPGEPASISCQASESLVHSNRNTYLHWYLQKPGQSPQLLIYKVSNRFSGVPDRFSGSGSGTDFTLKISRVEAEDVGVYYCSQNTHVPPTFGQGTKVEIERTVAAPSVFIFPPSDEQLKSGTASVVCLLNNFYPREAKVQWKVDNALQSGNSQESVTEQDSKDSTYSLSSTLTLSKADYEKHKVYACEVTHQGLSSPVTKSFNRGEC | 105 | 97.7 | – | –
2 | GpH7-A5/GpH7-B3 variant A330_12R/GpL16-k0 (antibody, human IgG1, kappa, He Ab: alteration in the GpH7-B3 H chain only; also called He Ab) heavy 1: not shown heavy 2: not shown light: DIVMTQSPLSLPVTPGEPASISCQASESLVHSNRNTYLHWYLQKPGQSPQLLIYKVSNRFSGVPDRFSGSGSGTDFTLKISRVEAEDVGVYYCSQNTHVPPTFGQGTKVEIERTVAAPSVFIFPPSDEQLKSGTASVVCLLNNFYPREAKVQWKVDNALQSGNSQESVTEQDSKDSTYSLSSTLTLSKADYEKHKVYACEVTHQGLSSPVTKSFNRGEC | 104 | 84.8 | – | –
3 | GpH7-A5/GpH7-B3 variant A330_19Q/GpL16-k0 (antibody, human IgG1, kappa, He Ab: alteration in the GpH7-B3 H chain only; also called He Ab) heavy 1: not shown heavy 2: not shown light: DIVMTQSPLSLPVTPGEPASISCQASESLVHSNRNTYLHWYLQKPGQSPQLLIYKVSNRFSGVPDRFSGSGSGTDFTLKISRVEAEDVGVYYCSQNTHVPPTFGQGTKVEIERTVAAPSVFIFPPSDEQLKSGTASVVCLLNNFYPREAKVQWKVDNALQSGNSQESVTEQDSKDSTYSLSSTLTLSKADYEKHKVYACEVTHQGLSSPVTKSFNRGEC | 104 | 90.8 | – | –
4 | GpH7-A5/GpH7-B3 variant A330_11K/GpL16-k0 (antibody, human IgG1, kappa, He Ab: alteration in the GpH7-B3 H chain only; also called He Ab) heavy 1: not shown heavy 2: not shown light: DIVMTQSPLSLPVTPGEPASISCQASESLVHSNRNTYLHWYLQKPGQSPQLLIYKVSNRFSGVPDRFSGSGSGTDFTLKISRVEAEDVGVYYCSQNTHVPPTFGQGTKVEIERTVAAPSVFIFPPSDEQLKSGTASVVCLLNNFYPREAKVQWKVDNALQSGNSQESVTEQDSKDSTYSLSSTLTLSKADYEKHKVYACEVTHQGLSSPVTKSFNRGEC | 110 | 95 | – | –
5 | GpH7-A5/GpH7-B3 variant E333_04F/GpL16-k0 (antibody, human IgG1, kappa, He Ab: alteration in the GpH7-B3 H chain only; also called He Ab) heavy 1: not shown heavy 2: not shown light: DIVMTQSPLSLPVTPGEPASISCQASESLVHSNRNTYLHWYLQKPGQSPQLLIYKVSNRFSGVPDRFSGSGSGTDFTLKISRVEAEDVGVYYCSQNTHVPPTFGQGTKVEIERTVAAPSVFIFPPSDEQLKSGTASVVCLLNNFYPREAKVQWKVDNALQSGNSQESVTEQDSKDSTYSLSSTLTLSKADYEKHKVYACEVTHQGLSSPVTKSFNRGEC | 102 | 94.6 | – | –

Now from value to binder:

Row | He/Con_2aR [1] [control = 100] | He/Con_2b [2] [control = 100] | He/Con_2b (IIb binding) (FcγRIIb) | He/Con_1a (Ia binding) (FcγRIa) | Binder
6 | 100 | 83 | – | – | GpH7-A5/GpH7-B3 variant H268_11K/GpL16-k0 (antibody, human IgG1, kappa, He Ab: alteration in the GpH7-B3 H chain only; also called He Ab) heavy 1: not shown heavy 2: not shown light: DIVMTQSPLSLPVTPGEPASISCQASESLVHSNRNTYLHWYLQKPGQSPQLLIYKVSNRFSGVPDRFSGSGSGTDFTLKISRVEAEDVGVYYCSQNTHVPPTFGQGTKVEIERTVAAPSVFIFPPSDEQLKSGTASVVCLLNNFYPREAKVQWKVDNALQSGNSQESVTEQDSKDSTYSLSSTLTLSKADYEKHKVYACEVTHQGLSSPVTKSFNRGEC
7 | – | – | 94.3 relative (control = 100) | 104 relative (control = 100) | GpH7-A5/GpH7-B3 variant S337_11K/GpL16-k0 (antibody, human IgG1, kappa, heterodimerized IgG1, one H chain mutated; also called He Ab) heavy 1: not shown heavy 2: not shown light: DIVMTQSPLSLPVTPGEPASISCQASESLVHSNRNTYLHWYLQKPGQSPQLLIYKVSNRFSGVPDRFSGSGSGTDFTLKISRVEAEDVGVYYCSQNTHVPPTFGQGTKVEIERTVAAPSVFIFPPSDEQLKSGTASVVCLLNNFYPREAKVQWKVDNALQSGNSQESVTEQDSKDSTYSLSSTLTLSKADYEKHKVYACEVTHQGLSSPVTKSFNRGEC
8 | – | – | 99.5 relative (control = 100) | 106 relative (control = 100) | GpH7-A5/GpH7-B3 variant S337_12R/GpL16-k0 (antibody, human IgG1, kappa, heterodimerized IgG1, one H chain mutated; also called He Ab) heavy 1: not shown heavy 2: not shown light: DIVMTQSPLSLPVTPGEPASISCQASESLVHSNRNTYLHWYLQKPGQSPQLLIYKVSNRFSGVPDRFSGSGSGTDFTLKISRVEAEDVGVYYCSQNTHVPPTFGQGTKVEIERTVAAPSVFIFPPSDEQLKSGTASVVCLLNNFYPREAKVQWKVDNALQSGNSQESVTEQDSKDSTYSLSSTLTLSKADYEKHKVYACEVTHQGLSSPVTKSFNRGEC
9 | 105 | 89.8 | – | – | GpH7-A5/GpH7-B3 variant H268_12R/GpL16-k0 (antibody, human IgG1, kappa, He Ab: alteration in the GpH7-B3 H chain only; also called He Ab) heavy 1: not shown heavy 2: not shown light: DIVMTQSPLSLPVTPGEPASISCQASESLVHSNRNTYLHWYLQKPGQSPQLLIYKVSNRFSGVPDRFSGSGSGTDFTLKISRVEAEDVGVYYCSQNTHVPPTFGQGTKVEIERTVAAPSVFIFPPSDEQLKSGTASVVCLLNNFYPREAKVQWKVDNALQSGNSQESVTEQDSKDSTYSLSSTLTLSKADYEKHKVYACEVTHQGLSSPVTKSFNRGEC

From US20180155451A1 (published 2018)
